The assay has as its target ERK (extracellular-signal-regulated kinase; mitogen-activated protein kinase). Description: cell-based or functional assay.

B1: ERK decoy protein (ER localization signal, a c-Myc epitope tag, and the ERK polyligand of SEQ ID NO:1) (designed binder, part only; not given: ER signal and c-Myc tag, not shown: small tags and cut ends)
chain, part: MPKKKPTPIQLNPAAKGRKPRDLELPAAAATGPLAPGPFGAGAYSPTAPTYSPTAPKKKGGGGAPRAPGGRRAGAGRRPRAPAKLSFFFPS
In the case of B1, the ERK activity in the endoplasmic reticulum (phosphorylation of myelin basic protein), Cos7 cells with M1-RasV12 came to 60% and the decrease in transformed foci formation, NIH3T3 cells transfected with H-RasV12 was 50%.

The record behind these values is patent US20140099668A1.
